Results published in US20210317204A1.
Substitutions are numbered along the chain they refer to. Values belong to the binder of their own block, whether it stands above or below them.

Biological target: human ROR1 extracellular domain-Fc fusion (human) (UniProt Q01973)
Assay: SPR, hROR1 ECD-Fc on chip

- Kd: 8.92 nM
- koff: 0.00567 s⁻¹
- kon: 636000 M⁻¹ s⁻¹
B1: D3 ADV1 dimer (VNAR, part only; not given: Linker between the domains, not shown: small tags and cut ends)
chain, part: ASVNQSPSSLSASVGDRVTITCVLTDTSYGLYSTSWFRKNPGTTDWERMSIGGRYSESVNKGAKSFTLTISSLQPEDSATYYCKAQSGMAISTGSGHGYNWYDGAGTKVEIKASVNQSPSSLSASVGDRVTITCVLTDTSYGLYSTSWFRKNPGTTDWERMSIGGRYSESVNKGAKSFTLTISSLQPEDSATYYCKAQSGMAISTGSGHGYNWYDGAGTKVEIKQASGAHHHHHHGAEFEQKLISEEDLG

- Kd: 26.2 nM
- koff: 0.016 s⁻¹
- kon: 609000 M⁻¹ s⁻¹
B2: D3 ADV2 dimer (VNAR, part only; not given: Linker between the domains, not shown: small tags and cut ends)
chain, part: B1 chain, part with A1T, S2R, N4D, A113T, S114R, N116D
